Entries after “also recorded” stand apart in the source; their conditions may differ.

For experiment [1], the system named is GM12878 nuclei. Description: Peroxidase-mediated biotin labeling after transposition, western blot. In kind it is biochemical, human. As for the experimental part:
Western blot. Whole cell lysate was generated by resuspending cells washed with 1×PBS in RIPA (Boston BioProducts) supplemented with 1× complete EDTA-free protease inhibitor cocktail (Roche). Cells were subject to sonication via a Sonic Dismembrator 100 (Fisher Scientific) at setting 2, with 3 pulses of 15 seconds on/off on ice. Lysates were clarified by centrifugation (15,000×g, 30 minutes, 4° C.) and their concentrations quantified with detergent-compatible Bradford assay (Thermo Fisher Scientific). All Western blots were run on NuPAGE 4-12% Bis-Tris protein gels (Thermo Fisher Scientific) and transferred to […] nitrocellulose membranes (GE Healthcare). Membranes were stained with Ponceau S, blocked with 3% milk in PBS-T, and incubated overnight with primary antibody and subsequently with secondary antibody after brief washing with PBS-T. Chemiluminescence was determined by applying ECL Western Blotting detection reagent (GE Healthcare) to membranes and imaging on an Amersham Imager 600 (GE Healthcare). Membranes were stripped with Restore PLUS Stripping Buffer (Thermo Fisher Scientific); streptavidin-HRP was inactivated with 15% hydrogen peroxide. […]

In experiment [2] the test system is HT1080 cells. Description: Co-immunofluorescence/ATAC-see analysis. Type of experiment: cell-based, human. As for the experimental part: Co-immunofluorescence/ATAC-see analysis. ATAC-see was performed similarly as previously described with slight modifications (Chen et al., Nat. Methods 13:1013-1020, 2016). Enzyme and transposon DNA were mixed at a 1:1.25 enzyme:MEDS-A/B-AF647 molar ratio and incubated at room temperature for 1 hour. Adherent cells were grown on glass coverslips (Fisher Scientific, 12-540A) until 80-90% confluent, washed with 1×PBS, fixed with 1% formaldehyde (Electron Microscopy Services) in 1×PBS for 10 minutes, and washed twice with ice-cold 1×PBS. Suspension cells were washed and resuspended with 1×PBS. 50,000 cells were added to poly-lysine slides and incubated at room temperature for 1 hour in a humidified chamber. An equal volume of 2% formaldehyde was added and incubated for 10 minutes, whereupon slides were washed twice with ice-cold 1×PBS. Immobilized cells were lysed by incubation with LB1 for 3 minutes followed by LB2 for 10 minutes at room temperature. Cells were then subject to tagmentation (20% dimethylformamide, 10 mM MgCl2, 20 mM Tris-HCl pH 7.5, 33% 1×PBS, 0.01% digitonin, 0.1% Tween-20, and either 80 pmol enzyme equivalent of enzyme:DNA complex in a total volume of 100 μL for adherent cells or 10 pmol enzyme equivalent of enzyme:DNA complex in a total volume of 50 μL for suspension cells) for 30 minutes at 37° C. in a humidified chamber. Subsequently, cells were washed with 50 mM EDTA and 0.01% SDS in 1×PBS three times for 15 minute each at 55° C., lysed for 10 minutes with 0.5% Triton X-100 in 1×PBS at room temperature, and blocked with 1% BSA and 10% goat serum in PBS-T for 1 hour in a humidified chamber. Primary antibody was added to slides in 1% BSA/PBS-T and incubated at 4° C. overnight; slides were then washed and subjected to secondary antibody staining for 1 hour. Slides were washed with PBS-T three times for 15 minutes each, stained with DAPI (Sigma, 1 μg/mL) for 1 minute, washed with PBS for 10 minutes, and mounted with Fluorescence Mounting Medium (Dako). Confocal microscopy images were taken with an LSM 880 Axio Imager 2 at 63× magnification (Zeiss). Images were processed with Fiji/ImageJ v2.0.0.
Primary antibodies used were anti-RNA polymerase II CTD repeat YSPTSPS (phospho S2) (rabbit, Abcam ab5095, 1:500), anti-H3K27Ac (rabbit, Abcam ab4729, 1:500), anti-H3K9me3 (rabbit, Abcam ab8898, 1:500), anti-CCDCl2 (rabbit, Atlas Antibodies HPA060530, 1:200), anti-SNRPA (mouse, 3F9-1F7, Sigma-Aldrich WH0006626M1, 1:100). […]
Quantitative image analyses were performed with CellProfiler v3.1.5. […] Pearson correlation coefficients were determined by comparing ATAC-see pixel intensities with corresponding immunofluorescence intensity values within each ROI to assess the nucleus-to-nucleus variation in colocalization. […]

B1: TP3: Tn5 transposase-AEAAAKEAAAKA linker-APEX2 peroxidase fusion, C-terminal FLAG; amino acid SEQ ID NO: 27 (protein)
chain: MITSALHRAADWAKSVFSSAALGDPRRTARLVNVAAQLAKYSGKSITISSEGSKAMQEGAYRFIRNPNVSAEAIRKAGAMQTVKLAQEFPELLAIEDTTSLSYRHQVAEELGKLGSIQDKSRGWWVHSVLLLEATTFRTVGLLHQEWWMRPDDPADADEKESGKWLAAAATSRLRMGSMMSNVIAVCDREADIHAYLQDKLAHNERFVVRSKHPRKDVESGLYLYDHLKNQPELGGYQISIPQKGVVDKRGKRKNRPARKASLSLRSGRITLKQGNITLNAVLAEEINPPKGETPLKWLLLTSEPVESLAQALRVIDIYTHRWRIEEFHKAWKTGAGAERQRMEEPDNLERMVSILSFVAVRLLQLRESFTPPQALRAQGLLKEAEHVESQSAETVLTPDECQLLGYLDKGKRKRKEKAGSLQWAYMAIARLGGFMDSKRTGIASWGALWEGWEALQSKLDGFLAAKDLMAQGIKIAEAAAKEAAAKAGKSYPTVSADYQDAVEKAKKKLRGFIAEKRCAPLMLRLAFHSAGTFDKGTKTGGPFGTIKHPAELAHSANNGLDIAVRLLEPLKAEFPILSYADFYQLAGVVAVEVTGGPKVPFHPGREDKPEPPPEGRLPDPTKGSDHLRDVFGKAMGLTDQDIVALSGGHTIGAAHKERSGFEGPWTSNPLIFDNSYFTELLSGEKEGLLQLPSDKALLSDPVFRPLVDKYAADEDAFFADYAEAHQKLSELGFADADYKDDDDK
modifications: C-terminal FLAG
In the case of B1, the “biotinylation signal (streptavidin)” value in experiment [1] was “highest signals”. In experiment [2] (marker of transcriptionally inactive chromatin), the “ATAC-see correlation with H3K9me3 immunofluorescence” value is given as “poorly correlating; also recorded: similarly poor correlations”. For the same molecule, the “ATAC-see correlation with H3K27Ac and RNAPII S2P immunofluorescence signal” value in experiment [2] (markers of transcriptionally active chromatin) is recorded as “strongly correlating; also recorded: similarly positive correlations”.

The values above are taken from patent US20230024461A1, “METHODS FOR DUAL DNA/PROTEIN TAGGING OF OPEN CHROMATIN” (Beth Israel Deaconess Medical Center, Inc., priority 2019, published 2023).
